Bridge positions count the residues as written; N and C are the ends. Square brackets hold non-standard residues; d marks the D form. Side chains are listed from the residue outwards. * marks the point of attachment. Biotin = O=C1N[C@H]2[C@H](CS[C@H]2CCCCC(=O)*)N1; pGlu = O=C1CC[C@@H](C(=O)O)N1; Nle = CCCC[C@H](N)C(=O)O; PEG = not defined here

Experiment [1] has as its target T1, chemokine (C-C motif) receptor 5 (CCR5) (human, UniProt P51681 1-352). Kind of experiment: cell-based or functional assay.
The target of experiment [2] is T1, chemokine (C-C motif) receptor 5 (CCR5). Kind of experiment: blood passed through chemokine-coupled column; flow cytometry before and after.
In experiment [3] the target is T2, chemokine (C-C motif) receptor 1 (CCR1) (human, UniProt P32246 1-355).
T2 construct: whole, on cells
T2 sequence (looked up): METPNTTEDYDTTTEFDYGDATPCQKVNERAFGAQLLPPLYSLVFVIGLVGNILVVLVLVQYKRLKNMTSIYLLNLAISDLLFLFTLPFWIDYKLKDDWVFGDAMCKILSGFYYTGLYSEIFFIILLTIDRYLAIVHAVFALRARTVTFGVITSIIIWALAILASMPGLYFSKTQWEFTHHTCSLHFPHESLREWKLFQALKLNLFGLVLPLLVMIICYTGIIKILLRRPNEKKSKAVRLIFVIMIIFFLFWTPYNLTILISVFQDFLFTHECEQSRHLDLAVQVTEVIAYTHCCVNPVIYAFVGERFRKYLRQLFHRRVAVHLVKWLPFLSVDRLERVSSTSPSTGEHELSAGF
Described as above.

In experiment [4] the target is T3, chemokine (C-C motif) receptor 9 (CCR9) (human, UniProt P51686 1-369).
T3 sequence (looked up): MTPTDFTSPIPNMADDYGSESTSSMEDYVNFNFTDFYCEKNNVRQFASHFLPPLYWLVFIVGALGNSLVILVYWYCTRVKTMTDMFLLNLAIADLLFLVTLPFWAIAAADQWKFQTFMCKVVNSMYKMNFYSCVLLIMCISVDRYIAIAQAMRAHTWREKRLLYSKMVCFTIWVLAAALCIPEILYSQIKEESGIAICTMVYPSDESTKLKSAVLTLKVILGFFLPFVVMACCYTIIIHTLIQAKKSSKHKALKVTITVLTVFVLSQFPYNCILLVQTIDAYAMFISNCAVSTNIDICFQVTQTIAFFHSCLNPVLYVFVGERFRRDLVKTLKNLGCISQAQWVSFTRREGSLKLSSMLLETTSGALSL
In words: cell-based or functional assay.

The target of experiment [5] is T4, chemokine (C-C motif) receptor 4 (CCR4) (human, UniProt P51679 1-360).
T4 sequence (looked up): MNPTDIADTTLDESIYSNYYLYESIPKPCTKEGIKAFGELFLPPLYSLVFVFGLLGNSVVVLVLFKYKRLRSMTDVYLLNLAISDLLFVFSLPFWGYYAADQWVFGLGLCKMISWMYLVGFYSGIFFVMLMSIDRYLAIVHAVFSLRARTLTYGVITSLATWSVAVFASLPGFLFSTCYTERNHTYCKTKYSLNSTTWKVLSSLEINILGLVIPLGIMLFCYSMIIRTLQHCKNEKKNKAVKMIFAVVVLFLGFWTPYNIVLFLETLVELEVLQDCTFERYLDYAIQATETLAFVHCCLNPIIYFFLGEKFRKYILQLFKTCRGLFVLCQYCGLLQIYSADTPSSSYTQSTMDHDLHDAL
Kind of experiment: cell-based or functional assay.

For experiment [6], the target named is T3, chemokine (C-C motif) receptor 9 (CCR9). Kind of experiment: flow cytometry; labelled chemokine on fixed blood leukocytes.
Experiment [7] addresses T5, chemokine (C-C motif) receptor 3 (CCR3) (human, UniProt P51677 1-355).
T5 construct: whole, on cells; also called hCCR3
T5 sequence (looked up): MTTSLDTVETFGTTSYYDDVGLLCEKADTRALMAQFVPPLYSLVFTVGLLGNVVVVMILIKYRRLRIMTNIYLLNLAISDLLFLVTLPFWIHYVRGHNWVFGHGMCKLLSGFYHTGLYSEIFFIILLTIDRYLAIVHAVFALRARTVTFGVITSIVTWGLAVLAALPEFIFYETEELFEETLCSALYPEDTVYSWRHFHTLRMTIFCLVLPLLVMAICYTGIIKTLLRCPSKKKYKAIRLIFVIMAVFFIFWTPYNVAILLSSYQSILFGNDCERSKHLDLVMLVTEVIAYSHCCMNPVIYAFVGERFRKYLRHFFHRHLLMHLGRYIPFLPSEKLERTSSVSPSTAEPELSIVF
Kind of experiment: flow cytometry; eotaxin binding compared with anti-CCR3 staining of neutrophils/eosinophils.

The target in a further experiment is T6, hCCR2b (human, UniProt P41597 1-374).
T6 chain: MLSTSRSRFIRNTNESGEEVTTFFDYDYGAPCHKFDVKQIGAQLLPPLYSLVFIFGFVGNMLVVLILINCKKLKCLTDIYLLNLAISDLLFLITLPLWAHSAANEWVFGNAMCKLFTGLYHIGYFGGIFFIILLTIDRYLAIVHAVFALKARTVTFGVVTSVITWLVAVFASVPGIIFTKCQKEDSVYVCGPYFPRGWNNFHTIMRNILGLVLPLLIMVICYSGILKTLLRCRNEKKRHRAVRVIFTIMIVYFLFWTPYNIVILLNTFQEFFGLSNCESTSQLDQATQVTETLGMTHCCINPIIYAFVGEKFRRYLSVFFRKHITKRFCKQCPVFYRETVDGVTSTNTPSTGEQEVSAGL
Kind of experiment: cell-based or functional assay.

Experiment [8] deals with T7, chemokine (C-C motif) receptor 7 (CCR7) (human, UniProt P32248 25-378).
T7 sequence (looked up): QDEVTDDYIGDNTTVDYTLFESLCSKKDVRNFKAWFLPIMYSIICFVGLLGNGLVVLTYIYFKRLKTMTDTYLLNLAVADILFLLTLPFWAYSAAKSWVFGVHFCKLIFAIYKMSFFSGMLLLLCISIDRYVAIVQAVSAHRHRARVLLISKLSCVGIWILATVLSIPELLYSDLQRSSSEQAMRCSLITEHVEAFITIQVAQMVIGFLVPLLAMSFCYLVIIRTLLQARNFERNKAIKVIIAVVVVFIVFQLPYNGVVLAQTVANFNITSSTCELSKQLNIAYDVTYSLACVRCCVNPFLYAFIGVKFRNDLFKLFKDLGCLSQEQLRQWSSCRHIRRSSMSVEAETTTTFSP
Kind of experiment: cell-based or functional assay.

T1 sequence (P51681 whole entry): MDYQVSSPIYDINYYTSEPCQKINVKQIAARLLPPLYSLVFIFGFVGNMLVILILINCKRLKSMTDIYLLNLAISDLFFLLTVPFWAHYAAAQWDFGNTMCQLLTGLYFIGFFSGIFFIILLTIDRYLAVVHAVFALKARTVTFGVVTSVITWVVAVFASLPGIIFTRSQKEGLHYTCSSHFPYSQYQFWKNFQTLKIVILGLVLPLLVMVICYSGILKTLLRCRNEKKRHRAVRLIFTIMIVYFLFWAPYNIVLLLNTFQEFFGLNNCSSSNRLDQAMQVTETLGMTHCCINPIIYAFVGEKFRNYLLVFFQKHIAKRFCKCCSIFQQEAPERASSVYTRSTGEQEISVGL

B1: biotinRANTES (CCL5): RANTES derivatised at Lys(67) with Biotin (ligand)
chain: SPYSSDTTPCCFAYIARPLPRAHIKEYFYTSGKCSNPAVVFVTRKNRQVCANPEKKWVREYINSLEK(Biotin)S-OH
modifications: disulfide 10-34, 11-50
notes: also called bRANTES; biotinylated RANTES
In the case of B1, the “EC50 (agonist activity, Aequorin assay)” value in experiment [1] came to 0.5 nM. Besides, the “percent reduction of chemokine receptor-expressing cells (CCR1, 3 or 5, not told apart)” value in experiment [2] and in [3] was approximately 20% in each case.

B2: biotinTECK (Met to Nleu substitution): TECK derivatised at the epsilon-amino side chain of Lys72 with PEG-Biotin (ligand)
chain: [pGlu]GVFEDCCLAYHYPIGWAVLRRAWTYRIQEVSGSCNLPAAIFYLPKRHRKVCGNPKSREVQRA[Nle]KLLDARNK([PEG-Biotin])VF-OH
modifications: disulfide 7-35, 8-52; reading uncertain
For B2, the “EC50 (agonist activity, Aequorin assay)” value in [4] is 63.6 nM.

B3: biotinMDC (CCL22): MDC derivatised at Lys(66) with PEG-Biotin (ligand)
chain: GPYGANMEDSVCCRDYVRYRLPLRVVKHFYWTSDSCPRPGVVLLTFRDKEICADPRVPWVKMILNK([PEG-Biotin])LSQ-NH2
modifications: disulfide 12-36, 13-52; reading uncertain
On to B3, for which the “EC50 (agonist activity, Aequorin assay)” value in [5] was determined as 4.5 nM.

B4: Biotinylated CCL25 (Almac Sciences) (ligand, UniProt O15444 24-97, looked up)
chain: QGVFEDCCLAYHYPIGWAVLRRAWTYRIQEVSGSCNLPAAIFYLPKRHRKVCGNPKSREVQRAMKLLDARNKVF
modifications: biotinylated (site not stated); for the flow cytometry tests also Alexa647 Fluor labeled
notes: also called biotinylated and Alexa647 Fluor labeled CCL25; CCL25-coated sepharose beads
For the molecule B4, in experiment [6], the “percent of CD4+ lymphocytes bound (Crohn's patient)” value was approximately 90%, the “percent of CD8+ lymphocytes bound (Crohn's patient)” value was approximately 80% and the “percent of monocytes bound (Crohn's patient)” value was approximately 90%.

B5: biotinylated and Alexa647 Fluor labeled eotaxin (Almac Sciences) (ligand)
chain: not shown
modifications: biotinylated and Alexa647 Fluor labeled (sites not given)
For B5, the binding result in experiment [7] is listed as “binds”.

B6: recombinant native MCP-2 (ligand, UniProt P80075 24-99, looked up)
chain: QPDSVSIPITCCFNVINRKIPIQRLESYTRITNIQCPKEAVIFKTKRGKEVCADPKERWVRDSMKHLDQIFQNLKP
With B6, in the experiment with hCCR2b, the “EC50 (partial agonist, Aequorin assay)” value was determined as 23.5 nM.

B7: biotinMIP-3b (CCL19): MIP-3b derivatised at Lys(78) with Biotin (ligand)
chain: GTNDAEDCCLSVTQKPIPGYIVRNFHYLLIKDGCRVPAVVFTTLRGRQLCAPPDQPWVERIIQRLQRTSAKMKRRSSX
modifications: X78 = K(Biotin), an additional C-terminal lysine; C-terminal amide
Turning to B7, the “EC50 (agonist activity, Aequorin assay)” value in experiment [8] is 11 nM.
